# Results published in the supplement of paper PMC9112550, “Optimization of the antimicrobial peptide Bac7 by deep mutational scanning” (BMC Biology, 2022).
# System: Escherichia coli TOP10
# Experiment: shrunken log2 fold change of peptide-encoding DNA abundance (4.5 h post-induction vs induction); higher = less antimicrobial activity (less host growth inhibition)
# Conditions: time post-induction: 4.5 h; library: site-saturation at positions 5, 18, 19, 20
# 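Note: peptides expressed intracellularly from a pBAD plasmid library in pooled LB shake-flask culture, induced with 0.3% L-arabinose, DNA abundance read by NGS, three biological replicates, DESeq2 with apeglm shrinkage.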
row,Sequence,shrunken log2 fold change
1,RRIRARPPRLPRPRPRPTTAPRP,0.514
2,RRIRFRPPRLPRPRPRPVQLPRP,-0.189
3,RRIRPRPPRLPRPRPRPSKFPRP,-0.494
4,RRIRTRPPRLPRPRPRPECSPRP,0.0479
5,RRIRIRPPRLPRPRPRPTMPPRP,-0.22
6,RRIRRRPPRLPRPRPRPSMLPRP,-0.172
7,RRIRFRPPRLPRPRPRPPNRPRP,0.266
8,RRIRSRPPRLPRPRPRPTGFPRP,-0.0473
9,RRIRTRPPRLPRPRPRPRSIPRP,-0.122
10,RRIRPRPPRLPRPRPRPSWEPRP,0.245
11,RRIRGRPPRLPRPRPRPILVPRP,0.133
12,RRIRNRPPRLPRPRPRPQNEPRP,-0.331
13,RRIRRRPPRLPRPRPRPDYNPRP,-0.0973
14,RRIRHRPPRLPRPRPRPKIDPRP,-0.0926
15,RRIRDRPPRLPRPRPRPKYMPRP,-0.326
16,RRIRDRPPRLPRPRPRPMKTPRP,-0.00973
17,RRIRVRPPRLPRPRPRPDTMPRP,-0.177
18,RRIRPRPPRLPRPRPRPTSAPRP,0.156
19,RRIRIRPPRLPRPRPRPNFDPRP,0.235
20,RRIRYRPPRLPRPRPRPPQVPRP,-0.0496
21,RRIRKRPPRLPRPRPRPKWLPRP,-0.0433
22,RRIRKRPPRLPRPRPRPADAPRP,0.194
23,RRIRWRPPRLPRPRPRPTMQPRP,0.13
24,RRIRVRPPRLPRPRPRPGRTPRP,0.117
25,RRIRNRPPRLPRPRPRPFCNPRP,-0.126

row,Sequence,shrunken log2 fold change
1,RRIRVRPPRLPRPRPRPNYEPRP,-0.0505
2,RRIRWRPPRLPRPRPRPRDMPRP,-0.255
3,RRIRHRPPRLPRPRPRPMFMPRP,-0.256
4,RRIRYRPPRLPRPRPRPCFIPRP,-0.321
5,RRIRLRPPRLPRPRPRPWDLPRP,-0.00277
6,RRIRYRPPRLPRPRPRPIPCPRP,-0.156
7,RRIRIRPPRLPRPRPRPLSNPRP,-0.893
8,RRIRSRPPRLPRPRPRPAKIPRP,-0.0773
9,RRIRTRPPRLPRPRPRPCCEPRP,-0.105
10,RRIRWRPPRLPRPRPRPSSKPRP,-0.369
11,RRIRSRPPRLPRPRPRPEPEPRP,0.102
12,RRIRLRPPRLPRPRPRPGQAPRP,0.39
13,RRIRWRPPRLPRPRPRPICFPRP,0.135
14,RRIRGRPPRLPRPRPRPICHPRP,0.378
15,RRIRLRPPRLPRPRPRPAVEPRP,-0.0223
16,RRIRQRPPRLPRPRPRPDLMPRP,-0.08
17,RRIRERPPRLPRPRPRPNDKPRP,-0.507
18,RRIRTRPPRLPRPRPRPRDPPRP,0.047
19,RRIRRRPPRLPRPRPRPHFNPRP,-0.11
20,RRIRLRPPRLPRPRPRPKQHPRP,-0.103
21,RRIRERPPRLPRPRPRPHTNPRP,-0.466
22,RRIRPRPPRLPRPRPRPKYPPRP,-0.672
23,RRIRMRPPRLPRPRPRPKIHPRP,-0.0387
24,RRIRSRPPRLPRPRPRPQCWPRP,0.24
25,RRIRQRPPRLPRPRPRPSHRPRP,-0.0821

row,Sequence,shrunken log2 fold change
1,RRIRWRPPRLPRPRPRPLIGPRP,0.0414
2,RRIRYRPPRLPRPRPRPDGDPRP,0.00902
3,RRIRCRPPRLPRPRPRPDSVPRP,-0.894
4,RRIRARPPRLPRPRPRPTTDPRP,0.745
5,RRIRVRPPRLPRPRPRPQQEPRP,0.0458
6,RRIRPRPPRLPRPRPRPYLRPRP,0.0823
7,RRIRTRPPRLPRPRPRPLKLPRP,-0.251
8,RRIRCRPPRLPRPRPRPLTDPRP,-0.285
9,RRIRTRPPRLPRPRPRPRNDPRP,-0.227
10,RRIRWRPPRLPRPRPRPITTPRP,0.0992
11,RRIRYRPPRLPRPRPRPPCYPRP,-0.378
12,RRIRSRPPRLPRPRPRPNAFPRP,-0.0168
13,RRIRQRPPRLPRPRPRPLMMPRP,-0.0501
14,RRIRMRPPRLPRPRPRPFDKPRP,-0.0136
15,RRIRSRPPRLPRPRPRPWIQPRP,-0.00956
16,RRIRERPPRLPRPRPRPIHYPRP,-0.0107
17,RRIRGRPPRLPRPRPRPYPDPRP,0.201
18,RRIRARPPRLPRPRPRPCDRPRP,-0.00133
19,RRIRRRPPRLPRPRPRPSATPRP,0.756
20,RRIRDRPPRLPRPRPRPSVAPRP,0.233
21,RRIRCRPPRLPRPRPRPMDKPRP,-0.131
22,RRIRGRPPRLPRPRPRPPFHPRP,0.24
23,RRIRYRPPRLPRPRPRPNWVPRP,-0.443
24,RRIRCRPPRLPRPRPRPGPNPRP,0.296
25,RRIRTRPPRLPRPRPRPYSNPRP,-0.941

row,Sequence,shrunken log2 fold change
1,RRIRTRPPRLPRPRPRPICSPRP,-0.0969
2,RRIRHRPPRLPRPRPRPMCPPRP,-0.0218
3,RRIRSRPPRLPRPRPRPRHCPRP,0.101
4,RRIRGRPPRLPRPRPRPSKWPRP,-0.158
5,RRIRIRPPRLPRPRPRPHVSPRP,-0.0557
6,RRIRSRPPRLPRPRPRPYTSPRP,-0.14
7,RRIRFRPPRLPRPRPRPFWTPRP,-0.257
8,RRIRWRPPRLPRPRPRPMSHPRP,-0.132
9,RRIRARPPRLPRPRPRPQKDPRP,0.0524
10,RRIRRRPPRLPRPRPRPKPGPRP,0.535
11,RRIRFRPPRLPRPRPRPTSKPRP,-0.191
12,RRIRARPPRLPRPRPRPSDYPRP,-0.108
13,RRIRSRPPRLPRPRPRPAMHPRP,-0.0199
14,RRIRIRPPRLPRPRPRPLWWPRP,0.266
15,RRIRKRPPRLPRPRPRPSDLPRP,0.154
16,RRIRWRPPRLPRPRPRPQDWPRP,0.36
17,RRIRIRPPRLPRPRPRPDRAPRP,-0.169
18,RRIRMRPPRLPRPRPRPPEKPRP,2.49
19,RRIRRRPPRLPRPRPRPVACPRP,0.41
20,RRIRNRPPRLPRPRPRPWGSPRP,-0.275
21,RRIRYRPPRLPRPRPRPDGVPRP,-0.0741
22,RRIRKRPPRLPRPRPRPNQMPRP,0.234
23,RRIRYRPPRLPRPRPRPANIPRP,-0.0107
24,RRIRQRPPRLPRPRPRPVDNPRP,0.0335
25,RRIRNRPPRLPRPRPRPGHWPRP,0.291

row,Sequence,shrunken log2 fold change
1,RRIRRRPPRLPRPRPRPPECPRP,0.222
2,RRIRDRPPRLPRPRPRPIGGPRP,0.0266
3,RRIRQRPPRLPRPRPRPLDCPRP,-0.221
4,RRIRWRPPRLPRPRPRPLHPPRP,0.597
5,RRIRVRPPRLPRPRPRPCLKPRP,-0.469
6,RRIRFRPPRLPRPRPRPHLKPRP,-0.437
7,RRIRHRPPRLPRPRPRPMNSPRP,-0.214
8,RRIRDRPPRLPRPRPRPGLWPRP,1.37
9,RRIRKRPPRLPRPRPRPCTFPRP,0.00111
10,RRIRSRPPRLPRPRPRPMYTPRP,-0.0916
11,RRIRLRPPRLPRPRPRPVRTPRP,0.175
12,RRIRNRPPRLPRPRPRPKRAPRP,0.146
13,RRIRHRPPRLPRPRPRPWIWPRP,-0.0845
14,RRIRRRPPRLPRPRPRPAQDPRP,0.349
15,RRIRGRPPRLPRPRPRPKKLPRP,0.39
16,RRIRCRPPRLPRPRPRPDNDPRP,-0.124
17,RRIRYRPPRLPRPRPRPGAGPRP,0.0814
18,RRIRSRPPRLPRPRPRPVDFPRP,-0.0272
19,RRIRPRPPRLPRPRPRPAEFPRP,-0.0142
20,RRIRHRPPRLPRPRPRPPFLPRP,-0.251
21,RRIRTRPPRLPRPRPRPAECPRP,-0.112
22,RRIRDRPPRLPRPRPRPNMGPRP,0.102
23,RRIRMRPPRLPRPRPRPAFQPRP,0.0845
24,RRIRDRPPRLPRPRPRPNFRPRP,0.267
25,RRIRGRPPRLPRPRPRPMLQPRP,0.324

row,Sequence,shrunken log2 fold change
1,RRIRKRPPRLPRPRPRPPHRPRP,0.501
2,RRIRYRPPRLPRPRPRPCSKPRP,-0.012
3,RRIRYRPPRLPRPRPRPLCTPRP,-0.759
4,RRIRCRPPRLPRPRPRPTEVPRP,-0.135
5,RRIRFRPPRLPRPRPRPNVGPRP,-0.0278
6,RRIRQRPPRLPRPRPRPGEKPRP,0.139
7,RRIRSRPPRLPRPRPRPKFDPRP,-0.081
8,RRIRARPPRLPRPRPRPVFDPRP,0.321
9,RRIRKRPPRLPRPRPRPWDTPRP,-0.00122
10,RRIRRRPPRLPRPRPRPCQPPRP,-0.0346
11,RRIRARPPRLPRPRPRPKGQPRP,0.296
12,RRIRERPPRLPRPRPRPTQRPRP,0.0475
13,RRIRTRPPRLPRPRPRPGGCPRP,0.26
14,RRIRIRPPRLPRPRPRPRNYPRP,0.0483
15,RRIRIRPPRLPRPRPRPCKWPRP,-0.38
16,RRIRFRPPRLPRPRPRPRCPPRP,0.262
17,RRIRNRPPRLPRPRPRPMSHPRP,-0.249
18,RRIRPRPPRLPRPRPRPMKSPRP,-0.0679
19,RRIRRRPPRLPRPRPRPHDSPRP,-0.0547
20,RRIRVRPPRLPRPRPRPKECPRP,-0.0265
21,RRIRRRPPRLPRPRPRPHCKPRP,0.298
22,RRIRHRPPRLPRPRPRPPSWPRP,0.393
23,RRIRKRPPRLPRPRPRPVDWPRP,0.852
24,RRIRKRPPRLPRPRPRPELLPRP,0.394
25,RRIRFRPPRLPRPRPRPEKKPRP,0.0265
